Laboratory results: US20230303658A1 (published 2023)

Tests used:
[1] = target: T1, CD16V protein (extracellular portion of CD16A V158 with C-terminal FLAG sequence) (human, UniProt P08637 19-208); assay: ELISA: EpCAM coated, anti-EpCAM antibody captured, FLAG-tagged CD16V protein titrated, anti-FLAG-HRP detection
T1 construct: Soluble protein from ExpiCHO-S cells, purified on anti-FLAG gel
Experimental: (§1) After incubation at room temperature for one hour, the plate was washed with TBS-T. Next, 20 μL of horseradish peroxidase-labeled anti-FLAG (registered trademark) M2 antibody diluted with the diluent was added to each well as a detection antibody. After incubating at room temperature for one hour, the plate was washed with TBS-T. After adding TMB+Substrate-Chromogen and incubating, the reaction was stopped by adding 1M sulfuric acid, and the absorbance at 450 nm and reference wavelength were measured using Infinite 200 PRO.

CD16V_K128E_K131E [2] = target: T2, CD16V_K128E_K131E (human, UniProt P08637 19-208); assay: ELISA: EpCAM coated, anti-EpCAM antibody captured, FLAG-tagged CD16V protein titrated from 10 µg/mL, anti-FLAG-HRP detection
T2 construct: Soluble FLAG-tagged mutant
T2 sequence (P08637 other isoform, or with tags, fused parts or gaps K128E K131E K128E K131E): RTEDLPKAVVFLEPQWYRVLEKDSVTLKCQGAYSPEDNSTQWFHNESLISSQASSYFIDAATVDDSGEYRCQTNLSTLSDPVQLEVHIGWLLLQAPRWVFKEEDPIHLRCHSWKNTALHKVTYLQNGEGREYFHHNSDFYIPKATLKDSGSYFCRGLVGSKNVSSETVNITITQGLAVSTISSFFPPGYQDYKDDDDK
Experimental: as §1

CD16V_K131D_N74Q [3] = target: T3, CD16V_K131D_N74Q (human, UniProt P08637 19-208); assay: as above
T3 construct: Soluble FLAG-tagged mutant
T3 sequence (P08637 other isoform, or with tags, fused parts or gaps K131D N74Q K131D N74Q): as the sequence (P08637 other isoform, or with tags, fused parts or gaps K128E K131E K128E K131E) above, with N74Q, E128K, E131D counted along it
Experimental: as §1

CD16V_K128E_K131D [4] = target: T4, CD16V_K128E_K131D (human, UniProt P08637 19-208); assay: as above
T4 construct: Soluble FLAG-tagged mutant
T4 sequence (P08637 other isoform, or with tags, fused parts or gaps K128E K131D K128E K131D): as the sequence (P08637 other isoform, or with tags, fused parts or gaps K128E K131E K128E K131E) above, with E131D counted along it
Experimental: as §1

CD16V_K131D_N38Q [5] = target: T5, CD16V_K131D_N38Q (human, UniProt P08637 19-208); assay: as above
T5 construct: Soluble FLAG-tagged mutant
T5 sequence (P08637 other isoform, or with tags, fused parts or gaps K131D N38Q K131D N38Q): as the sequence (P08637 other isoform, or with tags, fused parts or gaps K128E K131E K128E K131E) above, with N38Q, E128K, E131D counted along it
Experimental: as §1

CD16V_K131D [6] = target: T6, CD16V_K131D (human, UniProt P08637 19-208); assay: as above
T6 construct: Soluble FLAG-tagged mutant; also called K149D (AAH17865.1 numbering)
T6 sequence (P08637 other isoform, or with tags, fused parts or gaps K131D K131D): as the sequence (P08637 other isoform, or with tags, fused parts or gaps K128E K131E K128E K131E) above, with E128K, E131D counted along it
Experimental: as §1

CD16V_K128E_K131E [7] = target: T2, CD16V_K128E_K131E; assay: ELISA: EpCAM coated, anti-EpCAM antibody captured, FLAG-tagged CD16V protein titrated, anti-FLAG-HRP detection
Experimental: as §1

CD16V_K131D_N74Q [8] = target: T3, CD16V_K131D_N74Q; assay: as above
Experimental: as §1

CD16V_K128E_K131D [9] = target: T4, CD16V_K128E_K131D; assay: as above
Experimental: as §1

CD16V_K131D_N38Q [10] = target: T5, CD16V_K131D_N38Q; assay: as above
Experimental: as §1

CD16V_K131D [11] = target: T6, CD16V_K131D; assay: as above
Experimental: as §1

[12] = target: T1, CD16V protein (extracellular portion of …); assay: ELISA: EpCAM coated, anti-EpCAM antibody captured, FLAG-tagged CD16V protein titrated from 10 µg/mL, anti-FLAG-HRP detection
Experimental: as §1

T1 sequence (P08637 other isoform, or with tags, fused parts or gaps): as the sequence (P08637 other isoform, or with tags, fused parts or gaps K128E K131E K128E K131E) above, with E128K, E131K counted along it

B1: Fc_RK type anti-EpCAM antibody (antibody, human IgG1, kappa)
heavy: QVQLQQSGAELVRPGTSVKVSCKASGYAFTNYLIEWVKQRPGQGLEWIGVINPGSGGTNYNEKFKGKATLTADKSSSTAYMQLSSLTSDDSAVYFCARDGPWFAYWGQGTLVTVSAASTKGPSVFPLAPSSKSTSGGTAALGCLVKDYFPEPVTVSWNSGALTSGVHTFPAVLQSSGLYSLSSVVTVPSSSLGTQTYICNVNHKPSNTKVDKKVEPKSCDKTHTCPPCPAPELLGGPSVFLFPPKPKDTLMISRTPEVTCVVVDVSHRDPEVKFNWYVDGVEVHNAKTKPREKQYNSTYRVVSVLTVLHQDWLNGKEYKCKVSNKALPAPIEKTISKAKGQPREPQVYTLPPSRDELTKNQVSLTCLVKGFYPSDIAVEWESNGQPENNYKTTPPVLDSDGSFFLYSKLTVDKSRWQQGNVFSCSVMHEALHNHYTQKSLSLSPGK
light: NIVMTQSPKSMSMSVGERVTLTCKASENVVTYVSWYQQKPEQSPKLLIYGASNRYTGVPDRFTGSGSATDFTLTISSVQAEDLADYHCGQGYSYPYTFGGGTKLEIKRTVAAPSVFIFPPSDEQLKSGTASVVCLLNNFYPREAKVQWKVDNALQSGNSQESVTEQDSKDSTYSLSSTLTLSKADYEKHKVYACEVTHQGLSSPVTKSFNRGEC
[1]
  binding result: no binding (tested: CD16V protein up to 10 µg/mL)
CD16V_K128E_K131E [2]
  binding result: binds
CD16V_K131D_N74Q [3]
  binding result: binds
CD16V_K128E_K131D [4]
  binding result: binds
CD16V_K131D_N38Q [5]
  binding result: binds
CD16V_K131D [6]
  binding result: binds

B2: Fc_RR type anti-EpCAM antibody (antibody, human IgG1, kappa)
heavy: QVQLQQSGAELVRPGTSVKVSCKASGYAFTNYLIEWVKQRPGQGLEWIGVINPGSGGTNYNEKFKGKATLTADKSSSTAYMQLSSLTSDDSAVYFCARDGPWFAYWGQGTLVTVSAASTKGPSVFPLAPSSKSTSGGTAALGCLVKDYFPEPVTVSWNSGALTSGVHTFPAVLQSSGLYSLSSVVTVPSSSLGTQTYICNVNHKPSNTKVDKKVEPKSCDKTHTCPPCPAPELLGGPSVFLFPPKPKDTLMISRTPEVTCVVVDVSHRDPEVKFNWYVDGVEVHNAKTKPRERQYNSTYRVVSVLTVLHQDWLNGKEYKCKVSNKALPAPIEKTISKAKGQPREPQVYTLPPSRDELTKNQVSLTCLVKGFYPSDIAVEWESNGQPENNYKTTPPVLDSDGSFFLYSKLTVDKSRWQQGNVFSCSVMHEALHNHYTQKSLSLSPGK
light: B1 light
[1]
  binding result: no binding (tested: CD16V protein up to 10 µg/mL)
CD16V_K128E_K131E [2]
  binding result: binds
CD16V_K131D_N74Q [3]
  binding result: binds
CD16V_K128E_K131D [4]
  binding result: binds
CD16V_K131D_N38Q [5]
  binding result: binds
CD16V_K131D [6]
  binding result: binds

B3: Fc_wt type anti-EpCAM antibody (antibody, human IgG1, kappa)
heavy: not shown
light: B1 light
notes: also called edrecolomab variable regions on human Igγ1
CD16V_K128E_K131E [7]
  binding result: no binding (tested: CD16V protein up to 10 µg/mL)
CD16V_K131D_N74Q [8]
  binding result: no binding (tested: CD16V protein up to 10 µg/mL)
CD16V_K128E_K131D [9]
  binding result: no binding (tested: CD16V protein up to 10 µg/mL)
CD16V_K131D_N38Q [10]
  binding result: no binding (tested: CD16V protein up to 10 µg/mL)
CD16V_K131D [11]
  binding result: no binding (tested: CD16V protein up to 10 µg/mL)
[12]
  binding result: binds
